Assays:
[1] = biological target: full-length human TLR4 expressed as fusion protein with GAL4 (pTLR4) (human); experiment: flow cytometry of pSPA + pTLR4 transfected HEK293 cells stained with isotype control antibody [A)(iii]
[2] = biological target: full-length human TLR4 expressed as fusion protein with GAL4 (pTLR4) (human); experiment: flow cytometry of pSPA-mutant + pTLR4 transfected HEK293 cells stained with isotype control antibody [A)(iii]
[3] = biological target: full-length human TLR4 expressed as fusion protein with GAL4 (pTLR4) (human); experiment: cell-based or functional assay

% positive cells in region R [1] | % positive cells in region R [2] | Substance | LPS-induced NF-κB luciferase reporter activity in co-transfected HEK293 cells [3]
1.06% | 1.65% | (IC) (antibody) | 
 |  | SPA-mutant lacking SPA4 peptide region, expressed as fusion protein with VP16 (pSPA-mutant) (from UniProt Q8IWL2 21-248) | 44 RLU

— patent publication US20140256613A1
